Data taken from patent US20190092856A1 (published 2019).
Positions count from the first letter of the chain named. Blank lines part the entries; values can stand above or below the binder they belong to.

Columns and labels:
[1] = biological target: T1, Cynomolgus monkey (Macaca fascicularis) OSM, recombinant, in-house (cynomolgus monkey, UniProt P13725 26-221 (human entry), limits assumed); assay: SPR (Biacore), KD for cyno OSM over KD for human OSM
T1 construct: His/AviTag construct expressed in HEK 293; also called Cyno OSM; cyno OSM
T1 chain: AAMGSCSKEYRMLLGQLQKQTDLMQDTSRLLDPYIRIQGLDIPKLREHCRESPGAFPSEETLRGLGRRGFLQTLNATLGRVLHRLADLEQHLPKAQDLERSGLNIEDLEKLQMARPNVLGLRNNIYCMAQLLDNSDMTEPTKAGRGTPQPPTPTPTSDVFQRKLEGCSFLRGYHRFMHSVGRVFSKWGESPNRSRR
Experimental: (§1) The binding affinities were measured using Surface Plasmon Resonance (SPR) with a Biacore 3000 optical biosensor (Biacore) using human or Cyno OSM constructs as described. […] Approximately 19,000 RU (response units) of anti-OSM antibody were immobilized in each of four flow cells. The kinetic experiments were performed at 25° C. in running buffer (DPBS+0.005% P20+3 mM EDTA). Serial dilutions Human and Cyno OSM ECD from 100 nM to 0.412 nM were prepared in running buffer. About 200 RU of mAb were captured on flow cells 2 to 4 of the sensor chip. Flow cell 1 was used as reference surface. Capture of mAb was followed by a three-minute injection (association phase) of antigen at 50 μl/min, followed by 10 minutes of buffer flow (dissociation phase). The chip surface was regenerated by two pulses of 18-second injections of 100 mM H3PO4 (Sigma, Cat. No. 7961) at 50 μl/min.
(§2) The collected data was processed using the BIAevaluation software (Biacore, version 3.2). First, double reference subtraction of the data was performed by subtracting the curves generated by buffer injection from the reference-subtracted curves for analyte injections. Kinetic analysis of the data was performed using 1:1 binding model with global fit. The result for each mAb was reported in the format of Ka (On-rate), Kd (Off-rate) and KD (affinity constant).

[2] = biological target: T2, human OSM (recombinant, mammalian-cell derived, OSMN1-1) (human, UniProt P13725 26-221); assay: SPR (Biacore), mAb captured by anti-Fc, OSM as analyte
T2 construct: Precursor and mature (amino acids 1-184) forms were both expressed in HEK 293; also called hOSM; human oncostatin M
T2 sequence: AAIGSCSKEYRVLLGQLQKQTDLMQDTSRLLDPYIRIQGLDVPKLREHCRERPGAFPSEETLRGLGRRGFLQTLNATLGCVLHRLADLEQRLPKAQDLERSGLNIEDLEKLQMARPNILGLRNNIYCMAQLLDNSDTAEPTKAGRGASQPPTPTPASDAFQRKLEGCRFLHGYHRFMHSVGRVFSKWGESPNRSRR
Experimental: as §1, §2

[3] = biological target: T1, Cynomolgus monkey (Macaca fascicularis) …; assay: as above
Experimental: as §1, §2

[4] = biological target: T2, human OSM (recombinant, mammalian-cell …); assay: cell-based or functional assay
[5] = biological target: T2, human OSM (recombinant, mammalian-cell …); assay: SPR competition, hOSM captured on immobilized M2 (competitor), sample at 300 nM
Experimental: (§3) The biosensor surface was prepared by coupling each test mAb to the carboxymethylated dextran surface of a CM-5 chip (Biacore, Cat# BR-1000-14) following the manufacturer's instructions. Approximately 4,000-15,000 RU (response units) of each test mAb were immobilized in one the instrument's four flow cells. Competition experiments were performed at 25 ° C. in running buffer (DPBS+0.005% P20+3 mM EDTA). Human OSM (in-house, OSMN1-1) was diluted to 30 nM in running buffer and injected at 3 μl/min for 3 minutes over each of the flow cells with immobilized mAb. […] The chip surface was regenerated by two 12-second pulses of 100 mM H3PO4 (Sigma, Cat# 7961) at 50 μl/min. The collected data were processed using BIAevaluation software version 3.2 (Biacore). First, the sensorgrams were aligned upon injection of human OSM. […] Flow-cell (Fc1, etc.) immobilized mAbs appear along the horizontal sample rows of Table 10.

[6] = biological target: T2, human OSM (recombinant, mammalian-cell …); assay: SPR competition, hOSM captured on immobilized M54 (competitor), sample at 300 nM
Experimental: as §3

[7] = biological target: T2, human OSM (recombinant, mammalian-cell …); assay: SPR competition, hOSM captured on immobilized M69 (competitor), sample at 300 nM
Experimental: as §3

[8] = biological target: T2, human OSM (recombinant, mammalian-cell …); assay: SPR competition, hOSM captured on immobilized M71 (competitor), sample at 300 nM
Experimental: as §3

[9] = biological target: T2, human OSM (recombinant, mammalian-cell …); assay: SPR competition, second chip, hOSM captured on immobilized M2 (competitor), sample at 300 nM
Experimental: as §3

[10] = biological target: T2, human OSM (recombinant, mammalian-cell …); assay: SPR competition, second chip, hOSM captured on immobilized M55 (competitor), sample at 300 nM
Experimental: as §3

[11] = biological target: T2, human OSM (recombinant, mammalian-cell …); assay: SPR competition, second chip, hOSM captured on immobilized M64 (competitor), sample at 300 nM
Experimental: as §3

[12] = biological target: T2, human OSM (recombinant, mammalian-cell …); assay: cell-based or functional assay; remark: listed apart in the source
[13] = biological target: T3, native human Oncostatin M (macrophage-derived) (human, UniProt P13725 26-221, limits assumed); assay: cell-based or functional assay
T3 sequence: T2 sequence

[14] = biological target: T4, CHO cell-derived recombinant human oncostatin M (in-house) (human, UniProt P13725 26-221, limits assumed); assay: cell-based or functional assay
T4 sequence: T2 sequence

[15] = biological target: T5, CHO cell-derived recombinant cynomolgous monkey oncostatin M (in-house) (cynomolgus monkey, UniProt P13725 26-221 (human entry), limits assumed); assay: cell-based or functional assay
T5 chain: T1 chain

B1: M5 (antibody, V domains shown)
VH: EVQLVQSGAEVKKPGESLKISCKGSGYSFTSYWIGWVRQMPGKGLEWMGIIYPGDSDTRYSPSFQGQVTISADKSISTAYLQWSSLKASDTAMYYCARGFGASYLDYWGQGTLVTVSS
VL: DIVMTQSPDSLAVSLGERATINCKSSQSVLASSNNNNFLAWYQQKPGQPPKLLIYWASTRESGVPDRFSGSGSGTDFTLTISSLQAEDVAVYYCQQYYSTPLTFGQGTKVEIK
notes: Tested as full-length human IgG1; also called OSMM5; H135/L111
KD ratio Cyno/Human [1]: 1 | Kd [2]: 11.8 nM | koff [2]: 0.000779 s⁻¹ | kon [2]: 65900 M⁻¹ s⁻¹ | Kd [3]: 12.1 nM | koff [3]: 0.00111 s⁻¹ | kon [3]: 92200 M⁻¹ s⁻¹

B2: M9 (antibody, V domains shown)
VH: EVQLVQSGAEVKKPGESLKISCKGSGYSFTSYWISWVRQMPGKGLEWMGIIYPGDSYTRYSPSFQGQVTISADKSISTAYLQWSSLKASDTAMYYCARVPVSPAYLDYWGQGTLVTVSS
VL: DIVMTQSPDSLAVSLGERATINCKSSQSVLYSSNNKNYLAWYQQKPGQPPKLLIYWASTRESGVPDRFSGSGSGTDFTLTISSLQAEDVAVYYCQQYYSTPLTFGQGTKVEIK
notes: Tested as full-length human IgG1; also called OSMM9
pSTAT3 inhibition EC50 (A375 cells, 5 ng/ml hOSM) [4]: 1220 ng/ml | KD ratio Cyno/Human [1]: 0.6 | Kd [2]: 1.22 nM | koff [2]: 8.1e-05 s⁻¹ | kon [2]: 66300 M⁻¹ s⁻¹ | Kd [3]: 0.73 nM | koff [3]: 5.4e-05 s⁻¹ | kon [3]: 73100 M⁻¹ s⁻¹

B4: M71 (antibody, V domains shown)
VH: B2 VH
VL: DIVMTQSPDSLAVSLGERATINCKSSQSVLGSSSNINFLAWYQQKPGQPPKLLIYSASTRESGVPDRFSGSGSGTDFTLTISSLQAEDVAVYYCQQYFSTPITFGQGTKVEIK
notes: Human IgG1; also called H17/L180
IC50, neutralization of OSM-induced STAT3 phosphorylation in NHLF cells (2 ng/ml OSM) [12]: 0.0089 µg/mL | EC50, increase of proteoglycan synthesis in macrophage-chondrocyte co-culture [13]: 0.03 µg/mL | IC50, neutralization of OSM suppression of A375-S2 proliferation (BrdU) [14]: 0.0219 µg/mL | IC50, neutralization of OSM suppression of A375-S2 proliferation (BrdU) [15]: 0.0397 µg/mL | pSTAT3 inhibition EC50 (A375 cells, 5 ng/ml hOSM) [4]: 160 ng/ml | Binding Level (RU) [5]: 1190 RU | Binding Level (RU) [6]: -1 RU | Binding Level (RU) [7]: 23 RU | Binding Level (RU) [8]: 32 RU | Binding Level (RU) [9]: 1130 RU | Binding Level (RU) [10]: 22 RU | Binding Level (RU) [11]: 17 RU

B5: M10 (antibody, V domains shown)
VH: QVQLVQSGAEVKKPGSSVKVSCKASGGTFSSYAISWVRQAPGQGLEWMGGIIPIFGNANYAQKFQGRVTITADESTSTAYMELSSLRSEDTAVYYCARYGAKGLLDYWGQGTLVTVSS
VL: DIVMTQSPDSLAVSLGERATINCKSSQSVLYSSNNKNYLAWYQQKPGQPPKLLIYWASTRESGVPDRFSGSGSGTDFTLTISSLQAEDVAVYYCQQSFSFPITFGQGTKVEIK
notes: Tested as full-length human IgG1; also called OSMM10; H2/L2
KD ratio Cyno/Human [1]: 18.1 | Kd [2]: 1.05 nM | koff [2]: 6.3e-05 s⁻¹ | kon [2]: 60200 M⁻¹ s⁻¹ | Kd [3]: 18.9 nM | koff [3]: 0.00101 s⁻¹ | kon [3]: 53300 M⁻¹ s⁻¹

The next lines start with the values.

pSTAT3 inhibition EC50 (A375 cells, 5 ng/ml hOSM) [4]: 650 ng/ml | KD ratio Cyno/Human [1]: 1.4 | Kd [2]: 1.03 nM | koff [2]: 0.000197 s⁻¹ | kon [2]: 192000 M⁻¹ s⁻¹ | Kd [3]: 1.48 nM | koff [3]: 0.000299 s⁻¹ | kon [3]: 203000 M⁻¹ s⁻¹ | Binding Level (RU) [5]: 985 RU | Binding Level (RU) [6]: 11 RU | Binding Level (RU) [7]: 16 RU | Binding Level (RU) [8]: 19 RU | Binding Level (RU) [9]: 926 RU | Binding Level (RU) [10]: 36 RU | Binding Level (RU) [11]: 33 RU
B3: M6 (antibody, V domains shown)
VH: B2 VH with V99G, P100S, S102F, P103E, L106F
VL: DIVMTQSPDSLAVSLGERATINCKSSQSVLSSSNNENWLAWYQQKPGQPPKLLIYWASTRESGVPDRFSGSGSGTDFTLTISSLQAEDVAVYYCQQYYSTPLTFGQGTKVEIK
notes: Tested as full-length human IgG1; also called OSMM6; H14/L12

Binding Level (RU) [5]: 319 RU | Binding Level (RU) [6]: 17 RU | Binding Level (RU) [7]: 20 RU | Binding Level (RU) [8]: 29 RU | Binding Level (RU) [9]: 251 RU | Binding Level (RU) [10]: 25 RU | Binding Level (RU) [11]: 18 RU
B6: Human gp130-Fc (R&D Systems, Cat. No. 671-GP) (Fc fusion, UniProt P40189 23-619, looked up)
chain: ELLDPCGYISPESPVVQLHSNFTAVCVLKEKCMDYFHVNANYIVWKTNHFTIPKEQYTIINRTASSVTFTDIASLNIQLTCNILTFGQLEQNVYGITIISGLPPEKPKNLSCIVNEGKKMRCEWDGGRETHLETNFTLKSEWATHKFADCKAKRDTPTSCTVDYSTVYFVNIEVWVEAENALGKVTSDHINFDPVYKVKPNPPHNLSVINSEELSSILKLTWTNPSIKSVIILKYNIQYRTKDASTWSQIPPEDTASTRSSFTVQDLKPFTEYVFRIRCMKEDGKGYWSDWSEEASGITYEDRPSKAPSFWYKIDPSHTQGYRTVQLVWKTLPPFEANGKILDYEVTLTRWKSHLQNYTVNATKLTVNLTNDRYLATLTVRNLVGKSDAAVLTIPACDFQATHPVMDLKAFPKDNMLWVEWTTPRESVKKYILEWCVLSDKAPCITDWQQEDGTVHRTYLRGNLAESKCYLITVTPVYADGPGSPESIKAYLKQAPPSKGPTVRTKKVGKNEAVLEWDQLPVDVQNGFIRNYTIFYRTIIGNETAVNVDSSHTEYTLSSLTSDTLYMVRMAAYTDEGGKDGPEFTFTTPKFAQGEIE
notes: Bought fusion protein; also called gp130-Fc chimera; Fc part of the bought chimera not given, not described
